For one assay, the target named is Myc-GABAB1 (UniProt Q9Z0U4). The assay is described as follows: co-IP; cell surface immunoprecipitation: intact COS-1 cells incubated with mouse anti-Myc on ice for 3 h, then PBS or 100 μM baclofen for 15 min, lysed, protein G-agarose, Western blot; cells also expressed HA-GABAB2. A general note: In western blotting, separated proteins are transferred to a membrane and probed.

The target of the next assay is HA-GABAB1-YFP (UniProt Q9Z0U4). Nature of the assay: FRET or BRET; BRET donor saturation curves in intact COS-1 cells: fixed Rluc fusion (donor) and fixed GABAB2, increasing GABAB1-YFP (acceptor); coelenterazine h 5 μM; PBS or 100 μM baclofen for 15 min; fit with a single binding site.
A further assay addresses HA-GABAB2 (UniProt O88871).
UniProt O88871, sequence (O88871 41-940): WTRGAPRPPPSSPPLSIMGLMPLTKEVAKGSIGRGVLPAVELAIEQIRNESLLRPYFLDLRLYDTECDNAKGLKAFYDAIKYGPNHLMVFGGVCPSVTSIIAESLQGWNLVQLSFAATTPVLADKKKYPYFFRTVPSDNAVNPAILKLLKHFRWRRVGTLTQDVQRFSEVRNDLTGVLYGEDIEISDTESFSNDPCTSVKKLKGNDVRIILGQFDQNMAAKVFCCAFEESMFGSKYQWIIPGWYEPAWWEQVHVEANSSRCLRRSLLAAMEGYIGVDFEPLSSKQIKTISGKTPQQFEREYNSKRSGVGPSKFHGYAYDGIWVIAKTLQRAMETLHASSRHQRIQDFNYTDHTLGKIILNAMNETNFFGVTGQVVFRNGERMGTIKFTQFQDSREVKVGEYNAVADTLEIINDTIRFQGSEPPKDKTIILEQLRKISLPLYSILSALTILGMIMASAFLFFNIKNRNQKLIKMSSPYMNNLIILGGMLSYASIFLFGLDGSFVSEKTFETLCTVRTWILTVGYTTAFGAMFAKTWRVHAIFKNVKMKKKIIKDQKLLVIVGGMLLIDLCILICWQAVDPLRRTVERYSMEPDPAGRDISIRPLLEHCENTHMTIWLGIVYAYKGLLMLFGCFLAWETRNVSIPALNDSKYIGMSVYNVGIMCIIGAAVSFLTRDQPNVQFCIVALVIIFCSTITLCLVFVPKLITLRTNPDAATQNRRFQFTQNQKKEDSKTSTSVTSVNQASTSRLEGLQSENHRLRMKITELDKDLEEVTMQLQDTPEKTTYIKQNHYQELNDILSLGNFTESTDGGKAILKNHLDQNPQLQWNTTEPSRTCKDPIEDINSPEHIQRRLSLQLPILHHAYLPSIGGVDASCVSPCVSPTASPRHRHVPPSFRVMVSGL

With “FLAG-KCTD12 (from UniProt Q6WVG3 1-327) (natural protein)”, in the assay with Myc-GABAB1, the ratio of KCTD12:GABAB1 band intensity on Western blots (PBS) worked out at 0.84 and the ratio of KCTD12:GABAB1 band intensity on Western blots (baclofen) was 0.91.

In the assay with HA-GABAB1-YFP, “Rluc-KCTD12 (from UniProt Q6WVG3 1-327) (natural protein)” came in with a BRET50 of 0.026.

On to “Myc-GABAB1 (from UniProt Q9Z0U4 20-960) (receptor)”, for which the Endo H-resistant fraction of GABAB1 protein in COS-1 cells co-expressing GABAB1 and GABAB2 (all GABAB1 Endo H-sensitive without GABAB2) with HA-GABAB2 amounted to 44.5%.

The record behind these values is article PMC3750179.
